B1: GtACR1 without the CPD (GtACR1_ΔCPD), C-terminal eight-histidine tag (domain or fragment, Guillardia theta, UniProt L1J207 1-295, looked up)
chain: MSSITCDPAIYGEWSRENQFCVEKSLITLDGIKYVQLVMAVVSACQVFFMVTRAPKVPWEAIYLPTTEMITYSLAFTGNGYIRVANGKYLPWARMASWLCTCPIMLGLVSNMALVKYKSIPLNPMMIAASSICTVFGITASVVLDPLHVWLYCFISSIFFIFEMVVAFAIFAITIHDFQTIGSPMSLKVVERLKLMRIVFYVSWMAYPILWSFSSTGACIMSENTSSVLYLLGDALCKNTYGILLWATTWGLLNGKWDRDYVKGRNVDGTLMPEYEQDLEKGNTERYEDARAGET
modifications: all-trans-retinal bound to Lys238 via a protonated Schiff base linkage
notes: Guillardia theta anion channelrhodopsin 1 (GtACR1) with the C-terminal cytoplasmic domain (CPD, 143 amino acids) deleted; composed of 295 amino acids; Calculated molecular mass 34.4 kDa; also called CPD-deleted GtACR1; GtACR1 rhodopsin domain; source: P. pastoris SMD1168H, recombinant expression (pPICZ B vector, codon-optimised gene); not shown: His8, C-terminal, kept
B2: full-length Guillardia theta anion channelrhodopsin 1 (GtACR1_full) (natural protein, UniProt L1J207 1-438, looked up)
chain: MSSITCDPAIYGEWSRENQFCVEKSLITLDGIKYVQLVMAVVSACQVFFMVTRAPKVPWEAIYLPTTEMITYSLAFTGNGYIRVANGKYLPWARMASWLCTCPIMLGLVSNMALVKYKSIPLNPMMIAASSICTVFGITASVVLDPLHVWLYCFISSIFFIFEMVVAFAIFAITIHDFQTIGSPMSLKVVERLKLMRIVFYVSWMAYPILWSFSSTGACIMSENTSSVLYLLGDALCKNTYGILLWATTWGLLNGKWDRDYVKGRNVDGTLMPEYEQDLEKGNTERYEDARAGETFEVKMFGRTLTSVRRSRRRPRRDIVFNGGDRNRLSDSDSERRRRRKKYQRKDSESENSSDESMGSEHEKNRRKGKKKNKENRRSAPPKEDSTSDTLRDAEIKRIMDLMKRNAGSDIPGLDGDGRLRDDGGLIPTRNEEHDDSA
modifications: all-trans-retinal bound to Lys238 via a protonated Schiff base linkage
notes: Guillardia theta anion channelrhodopsin 1 (GtACR1), full length, 438 amino acids (rhodopsin domain plus cytoplasmic domain, CPD); Calculated molecular mass 51.0 kDa; Details of construction and expression are in the Supporting information; also called full-length GtACR1; source: P. pastoris SMD1168H, recombinant expression (pPICZ B vector, codon-optimised gene); not shown: His8, C-terminal, kept

Target: the molecule itself
Assay: SDS-PAGE and Western blot; P. pastoris cells expressing the protein compared with a negative control; immunoblotting with an anti-His tag antibody; bands assigned to monomer and dimer by molecular mass

Protein	stoichiometry N
B1	2
B2	2
